Measured values as given in patent US20260125478A1 (VIELA BIO, published 2026).
Where a chain is given by its changes, count along the chain named. Names may count otherwise. One block for each binder: values may come before it.

What was measured:
[1] = target: T1, Human CD32A 131H extracellular domain, 6xHis_Flag tagged (human, UniProt P12318 34-217); assay: HTRF epitope competition; competitor IV.3 IgG on biotinylated human CD32A 131H
T1 construct: Used unlabelled as the analyte in Biacore; also called Hu CD32A_131His
T1 sequence: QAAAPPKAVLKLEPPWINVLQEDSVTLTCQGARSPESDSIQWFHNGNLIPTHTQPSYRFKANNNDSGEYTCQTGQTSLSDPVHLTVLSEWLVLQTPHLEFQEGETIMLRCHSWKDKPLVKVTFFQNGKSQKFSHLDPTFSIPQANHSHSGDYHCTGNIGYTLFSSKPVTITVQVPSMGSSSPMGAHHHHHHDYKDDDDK

[2] = target: T1, Human CD32A 131H extracellular domain, …; assay: HTRF epitope competition: sample IgG titrated against binding of mouse IV.3 IgG to biotinylated human CD32A 131H
Experimental: Subsequently, a potential […] site was removed in VL CDR1 (N28L) to reduce the risk of chemical modification during manufacture.
5 μl is added to the assay plate (384 black, shallow well, Costar, 3676), to give a final concentration of 2.0 nM. […] 5 μl of each IgG sample is transferred to the assay plate using a MiniTrak™ (Perkin Elmer). […] Assay plates were incubated for 3 hours at room temperature prior to reading time resolved fluorescence at 620 nm and 665 nm emission wavelengths using an EnVision plate reader (Perkin Elmer).

[3] = target: T2, human FcγRIIA 131H on blood cells of 131H/H donors (human, UniProt P12318 34-317); assay: cell-based or functional assay
T2 sequence (looked up): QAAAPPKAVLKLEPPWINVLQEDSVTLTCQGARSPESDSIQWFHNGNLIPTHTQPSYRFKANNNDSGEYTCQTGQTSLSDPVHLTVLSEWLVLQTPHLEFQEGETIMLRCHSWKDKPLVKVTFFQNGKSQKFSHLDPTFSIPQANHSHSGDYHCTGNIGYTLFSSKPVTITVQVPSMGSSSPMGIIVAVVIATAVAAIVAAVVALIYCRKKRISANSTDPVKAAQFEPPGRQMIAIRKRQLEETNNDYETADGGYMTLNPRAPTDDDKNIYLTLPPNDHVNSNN

[4] = target: T3, Human CD32A 131R extracellular domain, 6xHis_Flag tagged (human, UniProt P12318 34-217); assay: Biacore; IgG1-TM captured on a Protein G chip, CD32A as analyte, 1:1 Langmuir fit, average of two experiments
T3 construct: also called Hu CD32A_131Arg; human CD32A_131 Arg
T3 chain: T1 sequence with H134R

[5] = target: T1, Human CD32A 131H extracellular domain, …; assay: as above
[6] = target: T4, cynomolgus CD32A version 3, 6xHis tagged (cynomolgus monkey); assay: as above
T4 construct: also called Cyno CD32A; cyno CD32A (version 3)
T4 chain: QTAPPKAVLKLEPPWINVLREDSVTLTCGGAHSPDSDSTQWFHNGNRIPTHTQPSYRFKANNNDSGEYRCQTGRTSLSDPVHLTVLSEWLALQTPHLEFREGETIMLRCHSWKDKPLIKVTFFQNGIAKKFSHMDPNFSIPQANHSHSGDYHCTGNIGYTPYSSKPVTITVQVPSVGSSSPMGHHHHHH

[7] = target: cynomolgus monkey FcγRIIA on blood cells (cynomolgus monkey); assay: cell-based or functional assay
[8] = target: T5, human FcγRIIA 131R on blood cells of 131R/R donors (human, UniProt P12318 34-317); assay: cell-based or functional assay
T5 sequence: T2 sequence (looked up) with H134R

[9] = target: T2, human FcγRIIA 131H on blood cells of …; assay: cell-based or functional assay; remark: listed apart in the source
[10] = target: T5, human FcγRIIA 131R on blood cells of …; assay: cell-based or functional assay; remark: listed apart in the source

fold loss of potency in the IV.3 epitope competition assay (the next sentence compares with the mouse IgG) [1]: 10 fold
B1: fully humanized IV.3 IgG1 (VH and VL fully humanized, before Y36F and N28L) (antibody)
chain 1: QVQLVQSGAEVKKPGASVKVSCKASGYTFTNYGMNWVRQAPGQRLEWMGWLNTYTGESIYPDDFKGRVTITRDTSASTAYMELSSLRSEDTAVYYCARGDYGYDDPLDYWGQGTLVTVSS
chain 2: DIVMTQSPLSLPVTPGEPASISCRSSKSLLHTNGNTYLHWYLQKPGQSPQLLIYRMSVLASGVPDRFSGSGSGTDFTLKISRVEAEDVGVYYCMQHLEYPLTFGQGTKLEIK

IC50 (read off the curve) [2]: ~2 nM | IC50 of the loss of surface FcγRIIA (M.F.I of IV.3-Alexa 647) on monocytes, whole blood, 2 h at 37 °C [3]: 0.191 nM | Kd [4]: 0.22 nM | koff [4]: 0.00129 s⁻¹ | kon [4]: 5.95e+06 M⁻¹ s⁻¹ | Kd [5]: 0.22 nM | koff [5]: 0.000681 s⁻¹ | kon [5]: 3.03e+06 M⁻¹ s⁻¹ | Kd [6]: 44.1 nM | koff [6]: 0.204 s⁻¹ | kon [6]: 4.63e+06 M⁻¹ s⁻¹ | IC50 of the loss of surface FcγRIIA (M.F.I of IV.3-Alexa 647) on cynomolgus monocytes, whole blood, 2 h at 37 °C [7]: 7.82 nM | IC50 of the loss of surface FcγRIIA (M.F.I of IV.3-Alexa 647) on monocytes, whole blood, 2 h at 37 °C [8]: 0.198 nM | EC50 of FcγRIIA internalization from the monocyte surface (whole blood FACS assay) [9]: 0.19 nM | EC50 of FcγRIIA internalization from the monocyte surface (whole blood FACS assay) [10]: 0.2 nM
B2: chimeric IV.3 (human IgG1-TM) (antibody, V domains shown)
VH: QIQLVQSGPELKKPGETVKISCKASGYTFTNYGMNWVKQAPGKGLKWMGWLNTYTGESIYPDDFKGRFAFSSETSASTAYLQINNLKNEDMATYFCARGDYGYDDPLDYWGQGTSVTVSS
VL: DIVMTQAAPSVPVTPGESVSISCRSSKSLLHTNGNTYLHWFLQRPGQSPQLLIYRMSVLASGVPDRFSGSGSGTAFTLSISRVEAEDVGVFYCMQHLEYPLTFGAGTKLELK
notes: also called parent IV.3 chimeric Ab; chimeric IV.3 antibody
